# Laboratory results reported in paper PMC6159521.
# Target: His-DnaNCg (Corynebacterium glutamicum sliding clamp, beta-clamp), purified (Corynebacterium glutamicum)
# Test: BLI
row,Substance,Kd [µM]
1,"EndoMSCg (Corynebacterium glutamicum EndoMS/NucS), wild type, purified untagged protein (enzyme)",0.185
2,EndoMSCg D144A mutant protein (enzyme),0.182
